Measured values reported in patent publication US20230295308A1, “ANTAGONISTIC BIPARATOPIC ANTIBODIES THAT SPECIFICALLY BIND FIBROBLAST GROWTH FACTOR RECEPTOR 2 AND METHODS OF USING SAME” (The Broad Institute, Inc., priority 2020, published 2023).

Tests used:
[1] = tested on: BaF3 cells overexpressing FGFR2-PHGDH; test: combination of BGJ398 and anti-FGFR2 bivalent antibody, isobolograms and Loewe scores (FIGS. 14, 15); format: cell-based; settings: presence of FGF10, treated for 5 days
Text: FIGS. 14B-14D provide isobolograms showing synergy between FGFR inhibitor and the anti-[…] bivalent antibody on the different days and supporting the results shown in FIG. 14A. FIG. 14B corresponds to 3 days after treatment with the BGJ398 inhibitor; FIG. 14C corresponds to 4 days after treatment with the BGJ398 inhibitor; and FIG. 14D corresponds to 5 days after treatment with the BGJ398 inhibitor. FIG. 14E provide Loewe scores showing synergy between the FGFR inhibitor and the anti-FGF2 bivalent antibody on the different days and supporting the results shown in FIG. 14A.
FIG. 15A presents charts showing synergy between the FGFR2 small molecule inhibitor BGJ398 and an anti-FGFR2 bivalent antibody (Antibody D) in the presence of FGF ligand (+FGF) in a cell-based assay using BaF3 cells overexpressing an FGFR2 fusion molecule (FGFR2-PHGDH) after 3, 4 and 5 days of treatment with the inhibitor and the antibody. […] FIGS. 15B-15D provide isobolograms showing synergy between the FGFR inhibitor and the anti-FGF2 bivalent antibody on the different days and supporting the results shown in FIG. 15A. FIG. 15B corresponds to 3 days after treatment with the BGJ398 inhibitor; FIG. 15C corresponds to 4 days after treatment with the BGJ398 inhibitor; and FIG. 15D corresponds to 5 days after treatment with the BGJ398 inhibitor. […]

[2] = target: T1, FGFR2 receptor dimerization (Homo sapiens, UniProt P21802); test: NANOBIT assay of FGFR2 dimerization; format: cell-based; settings: increasing antibody concentrations, cells stably expressing FGFR2
T1 construct: expressed in transfected cells
Text: (§1) FIG. 16A-16F provide schematic illustrations, blots and graphs related to the development of a NANOBIT® assay to measure FGFR2 dimerization. Such an assay is used to screen biparatopic screening for their ability to disrupt FGFR2 dimerization. […] The protein interactions bring the subunits into close proximity to form a functional enzyme that generates a bright, luminescent signal. (FIG. 16B). […] FIG. 16E presents a graph of the results of the NANOBIT® assay using NANOBIT® constructs with or without FGF10 ligand. […] As shown in the graph on the left side of FIG. 16F, certain of the antibodies A-F inhibited the growth of BaF3 cells stably overexpressing FGFR2 (FGFR2IIIb). Antibody D was used in the NANOBIT® assay (graph on the right of FIG. 16F). In the rightmost graph in FIG. 16F, the fold luminescence resulting from FGFR2 WT (wild type) in the assay is represented by the left bar in each set of three bars; the fold luminescence resulting from FGFR2+FGF10 ligand in the assay is represented by the middle bar in each set of three bars; and the fold luminescence resulting from +/−FGF10 ligand difference in the assay is represented by the right bar in each set of three bars shown in FIG. 16F.
A NANOBIT® assay was developed to measure FGFR2 dimerization in cells, and in particular to screen for biparatopic antibodies that were able to disrupt FGFR2 dimerization. […]

[3] = tested on: cells stably overexpressing FGFR2 (FGFR2IIIb); test: growth of cells stably overexpressing FGFR2 (FGFR2IIIb) (FIG. 16F left); format: cell-based
Text: as §1
Different expression constructs (e.g., up to eight) were made encoding LgBiT and SmBiT fused to the N and C termini of protein:protein pairs. […]

[4] = target: FGFR2b alpha IIIb antigen (UniProt P21802); test: SPR (Biacore), antibody on chip, FGFR2b alpha IIIb antigen
[5] = target: FGFR2b alpha IIIb antigen (UniProt P21802); test: SPR (Biacore), antibody immobilized, FGFR2b alpha IIIb in flow

T1 sequence (P21802 22-822 isoform P21802-3 limits assumed): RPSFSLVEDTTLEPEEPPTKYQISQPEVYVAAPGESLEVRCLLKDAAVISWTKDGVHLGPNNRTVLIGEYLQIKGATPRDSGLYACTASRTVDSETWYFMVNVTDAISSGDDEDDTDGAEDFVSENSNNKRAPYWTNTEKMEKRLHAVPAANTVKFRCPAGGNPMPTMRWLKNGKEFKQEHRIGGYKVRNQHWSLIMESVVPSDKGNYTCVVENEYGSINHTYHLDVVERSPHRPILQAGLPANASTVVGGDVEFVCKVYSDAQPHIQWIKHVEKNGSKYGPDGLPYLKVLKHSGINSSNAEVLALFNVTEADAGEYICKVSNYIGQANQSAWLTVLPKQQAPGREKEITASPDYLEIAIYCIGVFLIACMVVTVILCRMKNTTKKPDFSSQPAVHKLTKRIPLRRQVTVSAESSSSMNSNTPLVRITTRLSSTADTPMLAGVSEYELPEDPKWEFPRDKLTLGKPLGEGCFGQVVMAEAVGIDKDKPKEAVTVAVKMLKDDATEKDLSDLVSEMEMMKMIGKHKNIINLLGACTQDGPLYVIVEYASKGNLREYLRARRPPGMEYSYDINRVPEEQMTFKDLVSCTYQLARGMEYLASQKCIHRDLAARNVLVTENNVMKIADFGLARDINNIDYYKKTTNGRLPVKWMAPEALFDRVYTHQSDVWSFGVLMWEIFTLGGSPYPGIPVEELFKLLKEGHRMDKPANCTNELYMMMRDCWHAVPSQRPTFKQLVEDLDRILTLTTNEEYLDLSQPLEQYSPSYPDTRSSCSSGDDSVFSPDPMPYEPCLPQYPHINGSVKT
T1 sequence (P21802 22-822 isoform P21802-3 limits assumed): as above

blocking of FGF-induced dimerization of the FGFR2 receptor [2]: blocks
Kd [4]: 0.99 nM
Binding Stoichiometry [5]: 1.9
B1: 2B 1.3.12 (antibody, V domains shown)
VH: EVQLVESGGGLVQPGGSLRLSCAASGFPFTSTGISWVRQAPGKGLEWVGRTHLGDGSTNYADSVKGRFTISADTSKNTAYLQMNSLRAEDTAVYYCARTYGIYDTYDMYTEYVMDYWGQGTLVTVSS
VL: DIQMTQSPSSLSASVGDRVTITCRASQDVDTSLAWYKQKPGKAPKLLIYSASFLYSGVPSRFSGSGSGTDFTLTISSLQPEDFATYYCQQSTGHPQTFGQGTKVEIK
notes: the duobody scheme implies IgG1 with K409R or F405L; also called Antibody D; GE
synergy with BGJ398 in inhibiting FGFR2-PHGDH driven BaF3 cell growth [1]: synergizes
growth inhibition of cells stably overexpressing FGFR2 (FGFR2IIIb) [3]: most pronounced effect
